Changes are numbered by the printed parent chain. Names may count otherwise. Where two headings read alike, the source gives them in different places.
Experiments:
[1] = target: T1, recombinant human IL-13 (human, UniProt P35225 35-146, limits assumed); assay: SPR Biacore 3000, antibody captured, cytokine in solution
Source text: (§1) Surface plasmon resonance technology on a Biacore 3000 (GE Healthcare) was used for detailed kinetic characterisation of purified anibodics. A capture assay using a species specific antibody (e.g. human-Fc specific MAB 1302, Chemicon) for capture and orientation of the investigated antibodies was used. The capture antibody was immobilized via primary amine groups (10000 RU) on a research grade CM5 chip (GE Life Sciences) using standard procedures. The analysed antibody was captured with an adjusted RU value that would result in maximal analyte binding of 30 RU at a flow rate of 10 μl/min. Binding kinetics were measured against recombinant human IL-4 and IL-13 over a concentration range between 0 to 50 nM in HBS EP (10 mM HEPES pH 7.4, 150 mM NaCl, 3 mM EDTA, 0.005% Surfactant P20) at a flow rate of 30 μl/min. Chip surfaces were regenerated with 10 mM glycine pH2.5. Kinetic parameters were analysed and calculated in the BIAevaluation program package using a flow cell without captured antibody as reference. To investigate additive binding of both antigens, a wizard-driven co-inject method has been applied in which one antigen was injected immediately followed by the antigen mix of IL-13/IL-4.

[2] = target: T1, recombinant human IL-13; assay: cell-based or functional assay
[3] = target: T2, recombinant human IL-4 (human, UniProt P05112 25-153); assay: cell-based or functional assay
T2 sequence (looked up): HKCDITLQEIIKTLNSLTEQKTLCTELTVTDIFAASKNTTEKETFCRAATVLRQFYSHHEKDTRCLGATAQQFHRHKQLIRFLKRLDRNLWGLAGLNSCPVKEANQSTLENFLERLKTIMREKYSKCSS

[4] = target: T2, recombinant human IL-4; assay: SPR Biacore 3000, antibody captured, cytokine in solution
Source text: as §1

[5] = target: T2, recombinant human IL-4; assay: SPR Biacore 3000, ratio of KD
Source text: as §1

[6] = target: human IL-13 R112Q variant (human) (UniProt P35225); assay: SPR Biacore 3000, antibody captured, cytokine in solution
Sequence of human IL-13 R112Q variant (human) (P35225 33-146, stated change not applied): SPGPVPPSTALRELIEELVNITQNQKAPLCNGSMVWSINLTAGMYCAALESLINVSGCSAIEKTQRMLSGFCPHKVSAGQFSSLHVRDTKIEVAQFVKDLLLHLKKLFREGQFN

[7] = target: T2, recombinant human IL-4; assay: as above; remark: listed apart in the source
Source text: as §1
Binding and neutralization activity assays were performed as described in the previous Examples.

[8] = target: T2, recombinant human IL-4; assay: cell-based or functional assay; remark: listed apart in the source
[9] = target: T1, recombinant human IL-13; assay: SPR Biacore 3000, ratio of KD
Source text: as §1

T1 sequence (P35225 35-146 limits assumed): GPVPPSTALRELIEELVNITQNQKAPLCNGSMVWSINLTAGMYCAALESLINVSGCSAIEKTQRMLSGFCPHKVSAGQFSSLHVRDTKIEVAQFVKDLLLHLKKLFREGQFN

## mouse anti-IL-13 monoclonal antibody clone B-B13
[1]
  Kd: 0.563 nM
  koff: 0.000373 s⁻¹
  kon: 864000 M⁻¹ s⁻¹

## chimeric anti-IL-13 clone B-B13 monoclonal antibody
[2]
  IC50, inhibition of IL-13 induced TF-1 cell proliferation: 7.4 nM
[1]
  Kd: 0.261 nM
  koff: 0.000461 s⁻¹
  kon: 1.76e+06 M⁻¹ s⁻¹

B1: Hu8D4-8 VL1 × VH1 (antibody, V domains shown)
VH: QVQLQQSGPELVKPGASVKISCKASGYSFTSYWIHWIKQRPGQGLEWIGMIDPSDGETRLNQRFQGRATLTVDESTSTAYMQLRSPTSEDSAVYYCTRLKEYGNYDSFYFDVWGAGTLVTVSS
VL: DIQMTQSPASLSVSVGDTITLTCHASQNIDVWLSWFQQKPGNIPKLLIYKASNLHTGVPSRFSGSGSGTGFTLTISSLQPEDIATYYCQQAHSYPFTFGGGTKLEIKR
notes: Expressed as a whole antibody, purified on Protein A; also called hu8D4-8 VL1xVH1; humanized 8D4-8 VL1xVH1
[3]
  IC50, inhibition of IL-4 induced TF-1 cell proliferation: 41 pM
[4]
  Kd: 0.00329 nM
  koff: 0.000155 s⁻¹
  kon: 4.72e+07 M⁻¹ s⁻¹
[5]
  fold higher affinity than chimeric 8D4-8: 2 fold
  fold higher affinity than the original murine 8D4-8: 11 fold

B2: chimeric anti-IL-4 clone 8D4-8 monoclonal antibody (antibody, V domains shown)
VH: B1 VH with E10Q, K13R, A16T, Q65K, G66D, E74R, T76S, V93L, L118T
VL: DIQMNQSPASLSVSLGDTITLTCHASQNIDVWLSWFQQSPGNIPKLLIYKASNLHTGVPSRFSGSGSGTGFTLTISSLQPEDIATYYCQQAHSYPFTFGGGTKLEIK
notes: Murine variable domains fused to IGHG1 and IGKC; also called ch8D4-8 WT; chimeric 8D4-8
[3]
  IC50, inhibition of IL-4 induced TF-1 cell proliferation: 84 pM
[4]
  Kd: 0.00783 nM
  koff: 0.000195 s⁻¹
  kon: 2.49e+07 M⁻¹ s⁻¹

B3: mouse anti-IL-4 monoclonal antibody clone 8D4-8 (antibody, V domains shown)
VH: B1 VH with E10Q, K13R, A16T, Q65K, G66D, E74R, T76S, V93L, L118T
VL: B1 VL with T5N, V15L, K39S
notes: Bought mouse monoclonal antibody (Biozol / BioLegend); also called murine 8D4-8
[3]
  IC50, inhibition of IL-4 induced TF-1 cell proliferation: 97 pM
[4]
  Kd: 0.0377 nM
  koff: 0.000217 s⁻¹
  kon: 5.57e+06 M⁻¹ s⁻¹

B4: Hu8D4-8 VL1 × VH2 (antibody, V domains shown)
VH: B1 VH with P53A
VL: B1 VL
notes: Expressed as a whole antibody, purified on Protein A; also called humanized 8D4-8 VL1xVH2
[3]
  IC50, inhibition of IL-4 induced TF-1 cell proliferation: 135 pM
[4]
  Kd: 0.0139 nM
  koff: 0.000348 s⁻¹
  kon: 2.57e+07 M⁻¹ s⁻¹

B5: huTBTI3_1_1 (bispecific antibody, IgG4)
VH: EVQLKESGPGLVAPGGSLSITCTVSGFSLTDSSINWVRQPPGKGLEWLGMIWGDGRIDYADALKSRLSISKDSSKSQVFLEMTSLRTDDTATYYCARDGYFPYAMDFWGQGTSVTVSSGGGGSGGGGSQVQLQQSGPELVKPGASVKISCKASGYSFTSYWIHWIKQRPGQGLEWIGMIDASDGETRLNQRFQGRATLTVDESTSTAYMQLRSPTSEDSAVYYCTRLKEYGNYDSFYFDVWGAGTLVTVSS
VL: DIVLTQSPASLAVSLGQRATISCRASESVDSYGQSYMHWYQQKAGQPPKLLIYLASNLESGVPARFSGSGSRTDFTLTIDPVQAEDAATYYCQQNAEDSRTFGGGTKLEIKGGGGSGGGGSDIQMTQSPASLSVSVGDTITLTCHASQNIDVWLSWFQQKPGNIPKLLIYKASNLHTGVPSRFSGSGSGTGFTLTISSLQPEDIATYYCQQAHSYPFTFGGGTKLEIK
notes: Dual variable domain IgG4: B-B13 VL3 × VH2 outer, 8D4-8 VL1 × VH2 inner, (G4S)2 linkers; heterotetramer of two heavy and two light chains; copies: 2 + 2
[6]
  Kd: 0.121 nM
  koff: 0.000118 s⁻¹
  kon: 974000 M⁻¹ s⁻¹
[7]
  Kd: 0.148 nM
  koff: 0.000378 s⁻¹
  kon: 2.55e+06 M⁻¹ s⁻¹
[8]
  IC50 (nM) in IL-4 assay (TF-1 cell proliferation): 1.7 nM

B6: huTBTI3_2_2 (bispecific antibody, IgG4)
VH: B5 VH with A181P
VL: B5 VL with Q34N, A96N
notes: Dual variable domain IgG4: B-B13 VL2 × VH2 outer, 8D4-8 VL1 × VH1 inner, (G4S)2 linkers; heterotetramer of two heavy and two light chains; copies: 2 + 2
[7]
  Kd: 0.0332 nM
  koff: 0.000132 s⁻¹
  kon: 3.96e+06 M⁻¹ s⁻¹

B7: huTBTI3_1_2 (bispecific antibody, IgG4)
VH: B5 VH
VL: B5 VL with Q34N, A96N
notes: Dual variable domain IgG4: B-B13 VL2 × VH2 outer, 8D4-8 VL1 × VH2 inner, (G4S)2 linkers; heterotetramer of two heavy and two light chains; copies: 2 + 2
[7]
  Kd: 0.138 nM
  koff: 0.000308 s⁻¹
  kon: 2.23e+06 M⁻¹ s⁻¹

B8: huTBTI3_2_1 (bispecific antibody, IgG4)
VH: B5 VH with A181P
VL: B5 VL
notes: Dual variable domain IgG4: B-B13 VL3 × VH2 outer, 8D4-8 VL1 × VH1 inner, (G4S)2 linkers; heterotetramer of two heavy and two light chains; copies: 2 + 2
[6]
  Kd: 0.211 nM
  koff: 0.0002 s⁻¹
  kon: 948000 M⁻¹ s⁻¹
[7]
  Kd: 0.0347 nM
  koff: 0.000139 s⁻¹
  kon: 4e+06 M⁻¹ s⁻¹
[8]
  IC50 (nM) in IL-4 assay (TF-1 cell proliferation): 0.32 nM

B9: huB-B13 VL2 × VH2 (antibody, V domains shown)
VH: EVQLKESGPGLVAPGGSLSITCTVSGFSLTDSSINWVRQPPGKGLEWLGMIWGDGRIDYADALKSRLSISKDSSKSQVFLEMTSLRTDDTATYYCARDGYFPYAMDFWGQGTSVTVSS
VL: DIVLTQSPASLAVSLGQRATISCRASESVDSYGNSYMHWYQQKAGQPPKLLIYLASNLESGVPARFSGSGSRTDFTLTIDPVQAEDAATYYCQQNNEDSRTFGGGTKLEIK
notes: Expressed as a whole antibody, purified on Protein A; also called humanized B-B13 VL2xVH2
[1]
  Kd: 0.157 nM
  koff: 0.000177 s⁻¹
  kon: 1.13e+06 M⁻¹ s⁻¹

B10: huB-B13 VL3 × VH1 (antibody, V domains shown)
VH: B9 VH with A60N, S73N, T83N
VL: B9 VL with N34Q, N96A
notes: Expressed as a whole antibody, purified on Protein A; also called humanized B-B13 VL3xVH1
[2]
  IC50, inhibition of IL-13 induced TF-1 cell proliferation: 5.2 nM
[1]
  Kd: 0.172 nM
  koff: 0.000333 s⁻¹
  kon: 1.93e+06 M⁻¹ s⁻¹

B11: huB-B13 VL3 × VH2 (antibody, V domains shown)
VH: B9 VH
VL: B9 VL with N34Q, N96A
notes: Expressed as a whole antibody, purified on Protein A; also called huB-B13 VL3xVH2; humanized B-B13 VL3xVH2
[2]
  IC50, inhibition of IL-13 induced TF-1 cell proliferation: 3.2 nM
[1]
  Kd: 0.0439 nM
  koff: 0.000112 s⁻¹
  kon: 2.55e+06 M⁻¹ s⁻¹
[9]
  fold higher affinity than chimeric B-B13: 6 fold
  fold higher affinity than the original murine B-B13: 13 fold

B12: huB-B13 VL3 × VH3 (antibody, V domains shown)
VH: B9 VH with Y100R, D106K
VL: B9 VL with N34Q, N96A
notes: Expressed as a whole antibody, purified on Protein A; also called humanized B-B13 VL3xVH3
[1]
  Kd: 0.189 nM
  koff: 0.000405 s⁻¹
  kon: 2.14e+06 M⁻¹ s⁻¹

B13: huB-B13 VL1 × VH1 (antibody, V domains shown)
VH: B9 VH with A60N, S73N, T83N
VL: B9 VL with S99P
notes: Expressed as a whole antibody, purified on Protein A; also called humanized B-B13 VL1xVH1
[2]
  IC50, inhibition of IL-13 induced TF-1 cell proliferation: 15.7 nM
[1]
  Kd: 0.396 nM
  koff: 0.000691 s⁻¹
  kon: 1.74e+06 M⁻¹ s⁻¹

B14: huB-B13 VL1 × VH3 (antibody, V domains shown)
VH: B9 VH with Y100R, D106K
VL: B9 VL with S99P
notes: Expressed as a whole antibody, purified on Protein A; also called humanized B-B13 VL1xVH3
[1]
  Kd: 0.205 nM
  koff: 0.000395 s⁻¹
  kon: 1.93e+06 M⁻¹ s⁻¹
